Test results: patent US12227570B2, “Anti-CEACAM6 antibodies and methods of use” (Singapore Health Services PTE LTD, priority 2016, dated 2025)

Experiments:
cancer cell lines = experiment: IHC staining on FFPE cell line array; format: cell-based; details: gastric, lung, colorectal and pancreatic cancer cell lines
Method: TMA slides containing FFPE tissues were first heated in an oven at 60° C. for 30 min to remove any solvents. The slides were then dewaxed and re-hydrated through sequential immersion in Histoclear (2×), 100% ethanol (2×), 95% ethanol, 70% ethanol, and finally in DI water.
Heat-induced epitope retrieval was done in a solution containing 10 mM Tris Base, 1 mM EDTA, 0.05% Tween 20 at pH 9.0, and heated at 95° C. for 20 min. The container with the antigen retrieval solution and slides was then removed and allowed to cool to room temperature for an additional 20 min. The slides were then washed in DI water. Endogenous peroxidase activity was then blocked by incubation of the slides with 3% H2O2 in PBS for 30 min at room temperature. The slides were washed in DI water, followed by a blocking step with 10% normal goat serum in PBS for 30 min.
The slides were then incubated with GR6A04 at 5 μg/mL in blocking solution overnight at 4° C. The slides were then washed an incubated with a polymer-based anti-mouse secondary antibody conjugated with HRP (DAKO, USA) for 30 min at room temperature, and developed with the recommended DAB chromogen substrate solution for 2 min, and counterstained with Gill's Hematoxylin solution. […]

A549−GR6A04+ = experiment: ADCC reporter bioassay (Promega, Luciferase reporter for FcγR); format: cell-based
Method: (§1) ADCC activity was measured using a reporter bioassay (Promega; ADCC Reporter Bioassay, #G7010). The ADCC bioassay was carried out according to the manufacturer's protocol Briefly, PC-9 and A549 cells were seeded at 5,000 cells per well in a 96-well clear bottom black tissue culture plates (Corning; #3904) in low 4% IgG-serum (Promega; #G711A) media and allowed to attach and spread overnight. Serial dilutions of Hu-GR6A04 were incubated in triplicate wells for approximately 15 min at 37° C., 5% CO2. Following incubation, engineered effector cells were added to the wells at approximately 150,000 cells per well. After 6 hours, Bio-Glo™ Luciferase Assay Substrate (Promega; #G719A and #G720A) was added to the wells and luminescence was measured using the Infinite® 200 microplate reader (Tecan).

PC-9 = experiment: as above; format: cell-based
Method: as §1

A549−GR6A04+ cells = experiment: Subcutaneous xenograft model; format: in vivo, NCr Nude mice; details: 10 mg/kg, 3 doses on D0, D4 and D8, start at tumour size >150 mm3
Method: Xenograft models were established using A549−GR6A04+ cells in NCr Nude mice. 5E6 cells in DMEM basal media were mixed at a 1:1 ratio with Matrigel, and injected subcutaneously at a volume of 200 μl. Tumours were allowed to form and reach a size of >150 mm^3, before they were randomised into 5 groups of 5 mice each. The groups were treated with mAbs as follows: (1) Buffer control; (2) GR6A04-MMAE; (3) Hu-GR6A04; (4) GR6A04; (5) MG1.45-MMAE isotype control. mAbs were injected via tail vein injection at a total volume of 100 μl. Each dose, were applicable, is at 200 μg (equivalent to 10 mg/kg), and treatment was done every 4 days, for a total of 3 doses (Day 0, 4 and 8). Tumour size was monitored over 50 days.

B1: GR6A04: mouse IgG1, κ anti-CEACAM6 monoclonal antibody, VH SEQ ID NO:1, VL SEQ ID NO:2, binds N-glycosylated CEACAM6 (antibody, V domains shown)
VH: SGPELVKPGASVKMSCKASGNTFTSYVMHWVKQKPGQGLEWIGYINPYNDGTKYNEKFKGKATLTSDKSSSTAYMELSSLTSEDSAVYYCARSTARATPYFYAMDYWGQGTSVTVSS
VL: DILMTQSPSSLAVTAGEKVTMRCKSSQSLLWSVNQNSYLSWYQLKQGQPPKLLLYGASIRESWVPDRFTGSGSGTDFTLTISNVHVEDLAVYYCQHNHGSFLPYTFGGGTKLEIK
modifications: Isolated antibody fragment
Cancer cell lines
  IHC reactivity on FFPE cell line array: reactive
A549−GR6A04+
  EC50: 1.33 nM
PC-9
  EC50: 39.6 nM
A549−GR6A04+ cells
  tumour growth versus buffer control: slower growth compared to the buffer control
A549−GR6A04+ cells; listed as Gr6A04
  tumour growth versus buffer control: repression of tumour growth
